Measurements taken from PMC9374677.

Biological target: MBP-TNFR1^ECD deletion mutant ΔCRD2 (human) (UniProt P19438)
Test: ITC; MicroCal PEAQ-ITC, 16 °C; […] (500–600 μM) […] (~60 μM); 20 mM Tris-HCl pH 7.5, 200 mM NaCl; […]

For “Staphylococcal superantigen-like protein 10 (SSL10), residues 31-227, C-terminal 6xHis (from UniProt A0A0H3K6Z9 31-227) (natural protein)”, the Kd was 30.3 µM.
